Experimental findings from US20180273635A1 (Zymeworks, published 2018) are described below.

Assay [1] has as its target T1, Recombinant human HER2 (human, UniProt P04626 23-652).
T1 construct: extracellular domain; Analyte of the SPR assays; also called HER2 ECD; ECD2 of HER2
In words: SPR, Ka ratio to WT pertuzumab. For orientation: In SPR one partner is held on a chip, and binding of the other changes the refractive index at the surface.
Description: (§1) The affinity towards HER2 ECD of the samples was measured by SPR on a Biacore T200 as follows. Between 2000 and 4000 RU of anti-human Fc injected at concentration between 5 and 10 μg/ml was immobilized on a CM5 chip using standard amine coupling. Antigen-binding constructs were captured on the anti-human Fc (injected at concentration at 0.51 microg/mL in PBST, 1 min at 10 microl/min) at response levels ranging from 120-270 RU. […] HER2 dilutions were analyzed in duplicates. Sensograms were fit globally to a 1: 1 Langmuir binding model, using the software provided with the Biacore T200. All experiments were conducted at 25° C.

Assay [2] addresses T1, Recombinant human HER2. The assay can be described thus: SPR as in Example 3, average of three independent runs.
Description: as §1
In assay [3] the target is T2, Recombinant human HER2 (human, UniProt P04626 23-652).
T2 construct: extracellular domain; analyte of the SPR assays; also called HER2 ECD; ECD2 of HER2
In words: SPR, pre-SEC; ratio to WT v10013.
Description: as §1
(§2) The affinity of antigen-binding constructs in OA format was determined by SPR following protein A purification. […] Antigen-binding constructs in FSA format were purified by protein A affinity and SEC prior to assessment of affinity by SPR.

The target in assay [4] is T2, Recombinant human HER2. The assay can be described thus: SPR, post-SEC; ratio to WT v10013.
Description: as §1, §2
Assay [5] concerns the target T2, Recombinant human HER2. The assay can be described thus: SPR, variant captured on anti-human Fc, HER2 flowed, 25 C, pre-SEC.
Description: as §1
The target of assay [6] is T2, Recombinant human HER2. In words: SPR, variant captured on anti-human Fc, HER2 flowed, 25 C, post-SEC.
Description: as §1, §2

B1: Variant 4431 (antibody, name in Kabat numbering, V domains shown)
VH: EVQLVESGGGLVQPGGSLRLSCAASGFTFTDYTMDWVRQAPGKGLEWVADVNPNSGGSIYNQRFKGRFTLSVDRSKNTLYLQMNSLRAEDTAVYYCARNLGPSFYFDYWGQGTLVTVSS
VL: DIQMTQSPSSLSASVGDRVTITCKASQDVSAGVAWYQQKPGKAPKLLIYSASYRYTGVPSRFSGSGSGTDFTLTISSLQPEDFATYYCQQYYIYPYTFGQGTKVEIK
notes: also called literature pertuzumab variant
As for B1, the “SPR Ka, mut/Ka, WT” value in the assay with Recombinant human HER2 [1] turned out to be 3.9 fold. In the assay with Recombinant human HER2 [2], the Kd (in general, the constant that tells how readily two partners part at equilibrium) amounted to 5 nM.

B2: Variant 4433 (antibody, name in Kabat numbering, V domains shown)
VH: EVQLVESGGGLVQPGGSLRLSCAASGFTFTDYTMDWVRQAPGKGLEWVADVNPNSGGSIYNQRFKGRFTLSVDRSKNTLYLQMNSLRAEDTAVYYCARNLGPSFYFDYWGQGTLVTVSS
VL: DIQMTQSPSSLSASVGDRVTITCKASQDVSIGVAWYQQKPGKAPKLLIYSASYRYTGVPSRFSGSGSGTDFTLTISSLQPEDFATYYCQQYYIYPFTFGQGTKVEIK
notes: as for B1
Take B2: the “SPR Ka, mut/Ka, WT” value in the assay with Recombinant human HER2 [1] stood at 1.3 fold. Besides, in the assay with Recombinant human HER2 [2], the Kd came out at 10 nM.

B3: Variant 4432 (antibody, name in Kabat numbering, V domains shown)
VH: EVQLVESGGGLVQPGGSLRLSCAASGFTFTDYTMDWVRQAPGKGLEWVADVNPNSGGSIYNQRFKGRFTLSVDRSKNTLYLQMNSLRAEDTAVYYCARNLGPSFYFDYWGQGTLVTVSS
VL: DIQMTQSPSSLSASVGDRVTITCKASQDVSIGVAWYQQKPGKAPKLLIYSASYRYTGVPSRFSGSGSGTDFTLTISSLQPEDFATYYCQQYYIYPATFGQGTKVEIK
notes: as for B1
Take B3: the “SPR Ka, mut/Ka, WT” value with Recombinant human HER2 [1] worked out at 1.7 fold. Moreover, the dissociation constant Kd with Recombinant human HER2 [2] stood at 7.7 nM.

B4: variant 10014 (antibody)
heavy: EVQLVESGGGLVQPGGSLRLSCAASGFTFADYTMDWVRQAPGKGLEWVADVNPNSGGSIYNQRFKGRFTLSVDRSKNTLYLQMNSLRAEDTAVYYCARNLGPSFYFDYWGQGTLVTVSSASTKGPSVFPLAPSSKSTSGGTAALGCLVKDYFPEPVTVSWNSGALTSGVHTFPAVLQSSGLYSLSSVVTVPSSSLGTQTYICNVNHKPSNTKVDKKVEPKSCDKTHTCPPCPAPELLGGPSVFLFPPKPKDTLMISRTPEVTCVVVDVSHEDPEVKFNWYVDGVEVHNAKTKPREEQYNSTYRVVSVLTVLHQDWLNGKEYKCKVSNKALPAPIEKTISKAKGQPREPQVYVYPPSRDELTKNQVSLTCLVKGFYPSDIAVEWESNGQPENNYKTTPPVLDSDGSFALVSKLTVDKSRWQQGNVFSCSVMHEALHNHYTQKSLSLSPG
light: not shown
Fc: not shown
notes: OA format; combines the mutations of 12610 and 12611; also called v10014
As to B4, the “Ka, mut/Ka, WT” value in the assay with Recombinant human HER2 [3] came out at 7.9; with Recombinant human HER2 [4], 8. In addition, the results for the Kd in the assay with Recombinant human HER2 [5] and in the assay with Recombinant human HER2 [6] were 2.5 nM and 2.6 nM, respectively.

B5: variant 12533 (antibody, human IgG1, kappa)
heavy: EVQLVESGGGLVQPGGSLRLSCAASGFTFTDYTMDWVRQAPGKGLEWVADVNPNSGGSIYNQRFKGRFTLSVDRSKNTLYLQMNSLRAEDTAVYYCARNLGPSFYFDYWGQGTLVTVSSASTKGPSVFPLAPSSKSTSGGTAALGCLVKDYFPEPVTVSWNSGALTSGVHTFPAVLQSSGLYSLSSVVTVPSSSLGTQTYICNVNHKPSNTKVDKKVEPKSCDKTHTCPPCPAPELLGGPSVFLFPPKPKDTLMISRTPEVTCVVVDVSHEDPEVKFNWYVDGVEVHNAKTKPREEQYNSTYRVVSVLTVLHQDWLNGKEYKCKVSNKALPAPIEKTISKAKGQPREPQVYVYPPSRDELTKNQVSLTCLVKGFYPSDIAVEWESNGQPENNYKTTPPVLDSDGSFALVSKLTVDKSRWQQGNVFSCSVMHEALHNHYTQKSLSLSPG
light: DIQMTQSPSSLSASVGDRVTITCKASQDVSIGVAWYQQKPGKAPKLLIYSASYRYTGVPSRFSGSGSGTDFTLTISSLQPEDFATYYCQQYYIYPAAFGQGTKVEIKRTVAAPSVFIFPPSDEQLKSGTASVVCLLNNFYPREAKVQWKVDNALQSGNSQESVTEQDSKDSTYSLSSTLTLSKADYEKHKVYACEVTHQGLSSPVTKSFNRGEC
chain: not shown
notes: also called v12533
Turning to B5, the “Ka, mut/Ka, WT” value with Recombinant human HER2 [3] stood at 3.2; with Recombinant human HER2 [4] it was 2.9. In addition, the figures for the Kd with Recombinant human HER2 [5] and with Recombinant human HER2 [6] were 6.2 nM and 7.2 nM, respectively.

B6: variant 12611 (antibody, human IgG1, kappa)
heavy: EVQLVESGGGLVQPGGSLRLSCAASGFTFTDYTMDWVRQAPGKGLEWVADVNPNSGGSIYNQRFKGRFTLSVDRSKNTLYLQMNSLRAEDTAVYYCARNLGPSFYFDYWGQGTLVTVSSASTKGPSVFPLAPSSKSTSGGTAALGCLVKDYFPEPVTVSWNSGALTSGVHTFPAVLQSSGLYSLSSVVTVPSSSLGTQTYICNVNHKPSNTKVDKKVEPKSCDKTHTCPPCPAPELLGGPSVFLFPPKPKDTLMISRTPEVTCVVVDVSHEDPEVKFNWYVDGVEVHNAKTKPREEQYNSTYRVVSVLTVLHQDWLNGKEYKCKVSNKALPAPIEKTISKAKGQPREPQVYVYPPSRDELTKNQVSLTCLVKGFYPSDIAVEWESNGQPENNYKTTPPVLDSDGSFALVSKLTVDKSRWQQGNVFSCSVMHEALHNHYTQKSLSLSPG
light: not shown
chain: not shown
notes: OA pertuzumab variant, LC Y96A (Kabat); also called v12611
Regarding B6, the “Ka, mut/Ka, WT” value with Recombinant human HER2 [3] and in the assay with Recombinant human HER2 [4] was 1.8 in each case. In addition, the Kd with Recombinant human HER2 [5] and in the assay with Recombinant human HER2 [6] was 11 nM each time.

B7: variant 12529 (antibody, human IgG1, kappa)
heavy: EVQLVESGGGLVQPGGSLRLSCAASGFTFTDYTMDWVRQAPGKGLEWVADVNPNSGGSIYNQRFKGRFTLSVDRSKNTLYLQMNSLRAEDTAVYYCARNLGPSFYFDYWGQGTLVTVSSASTKGPSVFPLAPSSKSTSGGTAALGCLVKDYFPEPVTVSWNSGALTSGVHTFPAVLQSSGLYSLSSVVTVPSSSLGTQTYICNVNHKPSNTKVDKKVEPKSCDKTHTCPPCPAPELLGGPSVFLFPPKPKDTLMISRTPEVTCVVVDVSHEDPEVKFNWYVDGVEVHNAKTKPREEQYNSTYRVVSVLTVLHQDWLNGKEYKCKVSNKALPAPIEKTISKAKGQPREPQVYVYPPSRDELTKNQVSLTCLVKGFYPSDIAVEWESNGQPENNYKTTPPVLDSDGSFALVSKLTVDKSRWQQGNVFSCSVMHEALHNHYTQKSLSLSPG
light: not shown
chain: not shown
notes: also called v12529
With B7, the “Ka, mut/Ka, WT” value came out at 2.1 in the assay with Recombinant human HER2 [3] and 2.3 with Recombinant human HER2 [4]. Moreover, the results for the Kd with Recombinant human HER2 [5] and in the assay with Recombinant human HER2 [6] were 9.2 nM and 9 nM, respectively.

B8: variant 12610 (antibody, human IgG1, kappa)
heavy: EVQLVESGGGLVQPGGSLRLSCAASGFTFADYTMDWVRQAPGKGLEWVADVNPNSGGSIYNQRFKGRFTLSVDRSKNTLYLQMNSLRAEDTAVYYCARNLGPSFYFDYWGQGTLVTVSSASTKGPSVFPLAPSSKSTSGGTAALGCLVKDYFPEPVTVSWNSGALTSGVHTFPAVLQSSGLYSLSSVVTVPSSSLGTQTYICNVNHKPSNTKVDKKVEPKSCDKTHTCPPCPAPELLGGPSVFLFPPKPKDTLMISRTPEVTCVVVDVSHEDPEVKFNWYVDGVEVHNAKTKPREEQYNSTYRVVSVLTVLHQDWLNGKEYKCKVSNKALPAPIEKTISKAKGQPREPQVYVYPPSRDELTKNQVSLTCLVKGFYPSDIAVEWESNGQPENNYKTTPPVLDSDGSFALVSKLTVDKSRWQQGNVFSCSVMHEALHNHYTQKSLSLSPG
light: not shown
chain: not shown
notes: OA pertuzumab variant, HC T30A (Kabat); also called v12610
Take B8: the “Ka, mut/Ka, WT” value with Recombinant human HER2 [3] turned out to be 3.9; with Recombinant human HER2 [4], 4.5. The Kd with Recombinant human HER2 [5] was determined as 5.1 nM; with Recombinant human HER2 [6], 4.6 nM.

B9: variant 12534 (antibody, human IgG1, kappa)
heavy: EVQLVESGGGLVQPGGSLRLSCAASGFTFADYTMDWVRQAPGKGLEWVADVNPNSGGSIYNQRVKGRFTLSVDRSKNTLYLQMNSLRAEDTAVYYCARNLGPSFYFDYWGQGTLVTVSSASTKGPSVFPLAPSSKSTSGGTAALGCLVKDYFPEPVTVSWNSGALTSGVHTFPAVLQSSGLYSLSSVVTVPSSSLGTQTYICNVNHKPSNTKVDKKVEPKSCDKTHTCPPCPAPELLGGPSVFLFPPKPKDTLMISRTPEVTCVVVDVSHEDPEVKFNWYVDGVEVHNAKTKPREEQYNSTYRVVSVLTVLHQDWLNGKEYKCKVSNKALPAPIEKTISKAKGQPREPQVYVYPPSRDELTKNQVSLTCLVKGFYPSDIAVEWESNGQPENNYKTTPPVLDSDGSFALVSKLTVDKSRWQQGNVFSCSVMHEALHNHYTQKSLSLSPG
light: not shown
chain: not shown
notes: also called v12534
On to B9, for which the “Ka, mut/Ka, WT” value with Recombinant human HER2 [3] was 8.3; with Recombinant human HER2 [4] it was 7.4. For the same molecule, the figures for the Kd with Recombinant human HER2 [5] and with Recombinant human HER2 [6] were 2.4 nM and 2.8 nM, respectively.
